Experimental data: article PMC3364216, “The RuvA Homologues from Mycoplasma genitalium and Mycoplasma pneumoniae Exhibit Unique Functional Characteristics”

Assays:
RuvAMpn [1] = molecular target: T1, RuvAMpn (Mycoplasma pneumoniae M129 (ATCC 29342), UniProt P75243 1-206); assay: EMSA; no Mg2+; two complexes (I and II); 20 mM Tris-HCl pH 7.5, 1 mM DTT, 1 mM EDTA, 12.3 nM DNA, 10 ul, on ice 10 min; 8% PAGE in 0.5x TBE; +/- 10 mM Mg2+; settings: protein: recombinant; tags: N-terminal H10 (pET-16b); chain copies: 4; four-way Holliday junction HJ11:HJ12:HJ13:HJ14
T1 sequence: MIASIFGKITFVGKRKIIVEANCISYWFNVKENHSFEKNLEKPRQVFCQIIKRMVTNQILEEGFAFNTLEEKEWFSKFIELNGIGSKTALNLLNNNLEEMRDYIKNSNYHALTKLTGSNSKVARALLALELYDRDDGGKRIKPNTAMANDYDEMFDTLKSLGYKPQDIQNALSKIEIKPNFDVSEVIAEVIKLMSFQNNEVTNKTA

RecUMge = RecUMge (Mycoplasma genitalium, UniProt Q49422 1-166); assay: EMSA; on ice, no BSA; three major and one minor complex at 500 nM; 20 mM Tris-HCl pH 7.5, 1 mM DTT, 1 mM EDTA, 12.3 nM DNA, 10 ul, on ice 10 min; 8% PAGE in 0.5x TBE; +/- 10 mM Mg2+
RuvAMge [2] = molecular target: T2, RuvAMge (Mycoplasma genitalium G37 (ATCC 33530), UniProt Q49424 1-205); assay: EMSA; no Mg2+; single complex up to 4 uM protein; 20 mM Tris-HCl pH 7.5, 1 mM DTT, 1 mM EDTA, 12.3 nM DNA, 10 ul, on ice 10 min; 8% PAGE in 0.5x TBE; +/- 10 mM Mg2+; settings: protein: recombinant; tags: N-terminal H10 (pET-16b); chain copies: 4; four-way Holliday junction HJ11:HJ12:HJ13:HJ14
RuvAMpn [3] = molecular target: T1, RuvAMpn; assay: EMSA; no Mg2+; part of the complexes is with residual ss HJ11; 20 mM Tris-HCl pH 7.5, 1 mM DTT, 1 mM EDTA, 12.3 nM DNA, 10 ul, on ice 10 min; 8% PAGE in 0.5x TBE; +/- 10 mM Mg2+; settings: protein: recombinant; tags: N-terminal H10 (pET-16b); chain copies: 4; 5' overhang 1 nt on HJ11rv
RuvAMge [4] = molecular target: T2, RuvAMge; assay: as above; settings: protein: recombinant; tags: N-terminal H10 (pET-16b); chain copies: 4; 5' overhang 1 nt on HJ11rv
RuvAMpn [5] = molecular target: T1, RuvAMpn; assay: EMSA; no Mg2+; efficiency similar to HJ; 20 mM Tris-HCl pH 7.5, 1 mM DTT, 1 mM EDTA, 12.3 nM DNA, 10 ul, on ice 10 min; 8% PAGE in 0.5x TBE; +/- 10 mM Mg2+; settings: protein: recombinant; tags: N-terminal H10 (pET-16b); single strand

B1: HJ 1.1 (structured_DNA)
DNA 1: GCGACGTGATCACCAGATGATTGCTAGGCATGCTTTCCGCAAGAGAAGC
DNA 2: GGCTTCTCTTGCGGAAAGCATGCCTAGCAATCCTGTCAGCTGCATGGAAC
DNA 3: GGTTCCATGCAGCTGACAGGATTGCTAGGCTCAAGGCGAACTGCTAACGG
DNA 4: ACCGTTAGCAGTTCGCCTTGAGCCTAGCAATCATCTGGTGATCACGTCGC
- binding result (RuvAMpn [1]): binds
- binding result (RecUMge): binds
- binding result (RuvAMge [2]): binds

B2: HJ11/HJ11rv (dsDNA)
DNA 1: B1 DNA 1
DNA 2: GGCTTCTCTTGCGGAAAGCATGCCTAGCAATCATCTGGTGATCACGTCGC
- binding result (RuvAMpn [3]): binds
- binding result (RuvAMge [4]): binds

Binder: GCGACGTGATCACCAGATGATTGCTAGGCATGCTTTCCGCAAGAGAAGC (ssDNA) [HJ11]
- binding result (RuvAMpn [5]): binds
